Laboratory results reported in article PMC2734569, “Functional mapping of the fission yeast DNA polymerase δ B-subunit Cdc1 by site-directed and random pentapeptide insertion mutagenesis” (BMC Molecular Biology, 2009).

Experiments:
Assay in all cases: two-hybrid; LexA-Cdc1 bait (pBTM116 or pBTM116BN) with Gal4 activation domain-Cdc27 prey (pGAD2F-Cdc27) in S. cerevisiae CTY10-5d; ONPG liquid culture beta-galactosidase assay, mean of triplicates, as percent of wild-type Cdc1
Details in all cases: partners not purified
[1] = target: T1, Cdc1-A5 (Schizosaccharomyces pombe, UniProt P87324 1-462, Asn328Ala)
T1 construct: Cdc1, S. pombe, point mutant; source: yeast two-hybrid fusion, in S. cerevisiae CTY10-5d
T1 sequence (looked up): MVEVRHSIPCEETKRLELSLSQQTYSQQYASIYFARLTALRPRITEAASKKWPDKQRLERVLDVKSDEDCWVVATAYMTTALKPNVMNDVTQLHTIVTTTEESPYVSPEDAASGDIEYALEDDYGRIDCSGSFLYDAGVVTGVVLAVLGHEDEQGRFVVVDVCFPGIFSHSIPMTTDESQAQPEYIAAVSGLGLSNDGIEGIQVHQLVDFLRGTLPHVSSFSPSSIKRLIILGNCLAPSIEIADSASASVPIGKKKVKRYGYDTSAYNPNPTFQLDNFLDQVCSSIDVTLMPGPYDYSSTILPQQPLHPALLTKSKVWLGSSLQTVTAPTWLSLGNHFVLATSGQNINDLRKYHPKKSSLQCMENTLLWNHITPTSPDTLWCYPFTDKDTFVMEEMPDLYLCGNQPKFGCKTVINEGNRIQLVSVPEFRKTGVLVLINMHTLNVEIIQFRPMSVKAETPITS

[2] = target: T2, Cdc1-E4 (Schizosaccharomyces pombe, UniProt P87324 1-462, Cys-GlyValProProCys-Glu)
T2 construct: Cdc1, S. pombe, with a pentapeptide inserted after residue 10; source: yeast two-hybrid fusion, in S. cerevisiae CTY10-5d
T2 sequence (looked up): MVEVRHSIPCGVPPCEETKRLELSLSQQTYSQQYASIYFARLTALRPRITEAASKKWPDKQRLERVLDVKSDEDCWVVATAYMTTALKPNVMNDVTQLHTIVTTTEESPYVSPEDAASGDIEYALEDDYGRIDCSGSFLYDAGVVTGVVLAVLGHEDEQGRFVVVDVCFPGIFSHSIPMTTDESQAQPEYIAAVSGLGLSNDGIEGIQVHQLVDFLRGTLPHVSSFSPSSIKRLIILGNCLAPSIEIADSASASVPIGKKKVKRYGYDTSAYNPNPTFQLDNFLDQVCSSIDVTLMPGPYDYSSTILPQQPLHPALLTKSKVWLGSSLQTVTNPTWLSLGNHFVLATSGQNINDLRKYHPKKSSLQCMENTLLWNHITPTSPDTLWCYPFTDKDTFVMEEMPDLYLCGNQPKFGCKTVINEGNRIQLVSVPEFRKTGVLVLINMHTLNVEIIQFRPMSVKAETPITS

[3] = target: T3, Cdc1-J12 (Schizosaccharomyces pombe, UniProt P87324 1-462, Ser-GlyValProHisSer-Ile)
T3 construct: Cdc1, S. pombe, with a pentapeptide inserted after residue 7; source: yeast two-hybrid fusion, in S. cerevisiae CTY10-5d
T3 sequence (looked up): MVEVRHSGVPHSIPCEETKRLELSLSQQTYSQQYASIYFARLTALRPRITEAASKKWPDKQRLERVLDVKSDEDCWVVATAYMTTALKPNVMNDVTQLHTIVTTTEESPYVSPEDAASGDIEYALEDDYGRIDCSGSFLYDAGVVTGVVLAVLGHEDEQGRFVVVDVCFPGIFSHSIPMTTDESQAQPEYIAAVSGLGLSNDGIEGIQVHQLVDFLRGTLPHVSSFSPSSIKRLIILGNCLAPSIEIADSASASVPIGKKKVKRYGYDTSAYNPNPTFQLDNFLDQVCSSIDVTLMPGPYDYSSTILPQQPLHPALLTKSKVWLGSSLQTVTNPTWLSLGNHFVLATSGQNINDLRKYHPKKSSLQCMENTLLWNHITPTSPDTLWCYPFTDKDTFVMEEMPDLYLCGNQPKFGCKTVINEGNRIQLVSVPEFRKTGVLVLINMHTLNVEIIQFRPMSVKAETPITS

[4] = target: T4, Cdc1-J8 (Schizosaccharomyces pombe, UniProt P87324 1-462, Lys-GlyValProLeuLys-Pro)
T4 construct: Cdc1, S. pombe, with a pentapeptide inserted after residue 83; also called J19; source: yeast two-hybrid fusion, in S. cerevisiae CTY10-5d
T4 sequence (looked up): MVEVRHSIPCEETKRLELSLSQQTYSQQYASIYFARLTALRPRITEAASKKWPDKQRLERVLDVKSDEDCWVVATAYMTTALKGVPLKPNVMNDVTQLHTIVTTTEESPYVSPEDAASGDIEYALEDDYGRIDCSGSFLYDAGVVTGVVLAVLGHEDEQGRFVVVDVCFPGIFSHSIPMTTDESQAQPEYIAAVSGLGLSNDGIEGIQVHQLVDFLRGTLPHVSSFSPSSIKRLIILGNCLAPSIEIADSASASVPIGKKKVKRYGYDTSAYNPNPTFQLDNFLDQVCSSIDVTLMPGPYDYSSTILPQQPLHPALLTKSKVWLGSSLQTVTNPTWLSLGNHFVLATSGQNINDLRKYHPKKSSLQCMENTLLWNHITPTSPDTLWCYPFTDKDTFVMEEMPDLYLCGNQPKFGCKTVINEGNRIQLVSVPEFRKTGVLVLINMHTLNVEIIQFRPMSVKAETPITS

two-hybrid beta-galactosidase activity, % of wild-type Cdc1 [1]: 37%
two-hybrid beta-galactosidase activity, % of wild-type Cdc1 [2]: 62%
two-hybrid beta-galactosidase activity, % of wild-type Cdc1 [3]: 59%
two-hybrid beta-galactosidase activity, % of wild-type Cdc1 [4]: 128%
B1: Cdc27 (fission yeast DNA polymerase delta C-subunit) (natural protein, Schizosaccharomyces pombe, UniProt P30261 1-372, looked up)
chain: MEEWRNFLDIKVINESSLVTVDNLSLQLDISSEKAQEYLNMFYQGNDFLYPIYLIHGQPIDDEINLEIDEESQPISNFPVLQYILCDKSSLQEKQSRLKSGYKTVIFALSSAPLSDFDELLPAVYEIREKDVLYKKEDADKYGFIFNENSVPRVLKKAPSTHSPQLSVPSKTSTIDKTDTRSTEKTKGKDIFSNARNQKGNSSRKNKKAPLENHKEKEPLLPKEEKLSEQAKRERDDLKNIMQLEDESVSTTSVHDSEDDNLDSNNFQLEIGTEAKSAAPDEPQEIIKSVSGGKRRGKRKVKKYATTKDEEGFLVTKEEEVWESFSEDENISTGTSNVVRNKPTTVNIATKKKNTAQSKPQQKSIMSFFGKK
notes: DNA polymerase delta C-subunit Cdc27, S. pombe; prey plasmid pGAD2F-Cdc27; also called pGAD2F-Cdc27; source: yeast two-hybrid fusion, in S. cerevisiae CTY10-5d
